These results are taken from patent publication US20150031601A1.

This assay has as its target serum proteins. Put plainly: 90% serum, 30 kDa ultrafiltration, HPLC.
As for GFCWNVCVYRNGVRYCHRRCN [SEQ ID NO: 254], the Protein binding (%) is 77%. In the case of GFCWNVCFYRNGVRVCHRRCN [SEQ ID NO: 272] it was 74%; in that of GFCWYSCVYRNGVRVCYRRCN [SEQ ID NO: 19], 89%; in that of GFCWNVCVYRNGVRVCHRRCW [SEQ ID NO: 291], 99%.

GFCWHVCHYRNSVRVCYRRCN [SEQ ID NO: 219] registered a Protein binding (%) of 99%. In the case of GFCWNVCVYRNGVRVCHRRCG [SEQ ID NO: 281] it was 66%. For GFCWNWCVYRNGVRVCHRRCN [SEQ ID NO: 267] the value was 85%. GFCWNVCVYRNGVRICHRRCN [SEQ ID NO: 248] had a Protein binding (%) of 58%. For GFCWNVCVYRNGYRVCHRRCN [SEQ ID NO: 242] the value was 83%; for GFCWNVCVYRNGVRFCHRRCN [SEQ ID NO: 245], 85%; for GFCWNVCVYRNKVRVCHRRCN [SEQ ID NO: 227], 80%. In turn, GFCWNVCVYRHGVRVCHRRCN [SEQ ID NO: 232] gave a Protein binding (%) of 85%. In turn, GFCWNVCVYRNYVRVCHRRCN [SEQ ID NO: 229] had a Protein binding (%) of 91%. For GFCWNVCVYRQGVRVCHRRCN [SEQ ID NO: 233] the value was 78%. As to GFCWNFCVYRNGVRVCHRRCN [SEQ ID NO: 260], the Protein binding (%) came to 84%. For GFCWNVCVYRNRVRVCHRRCN [SEQ ID NO: 228] the value was 86%; for GFCWNVCVYRNGVRNCHRRCN [SEQ ID NO: 251], 71%. As to GFCWNVCLYRNGVRVCHRRCN [SEQ ID NO: 275], the Protein binding (%) was 80%. In the case of GFCWNVCVYRNGVRRCHRRCN [SEQ ID NO: 252] it was 76%; in that of GFCWNVCVRRNGVRVCHRRCN [SEQ ID NO: 308], 94%. For GFCWNVCVYRNGVRLCHRRCN [SEQ ID NO: 249] the value was 83%; for GFCWYGCVYRNGVRVCYRRCN [SEQ ID NO: 15], 96%; for GFCWNVCVYRNGVRVCHRRCK [SEQ ID NO: 284], 72%. For GFCWNVCVYRRGVRVCHRRCN [SEQ ID NO: 234] the value was 86%; for GFCWNICVYRNGVRVCHRRCN [SEQ ID NO: 262], 88%. As for GFCWNVCVYRNGARVCHRRCN [SEQ ID NO: 235], the Protein binding (%) turned out to be 64%. For GFCWNLCVYRNGVRVCHRRCN [SEQ ID NO: 263] the value was 80%; for GFCWYWCVYRNGVRVCYRRCN [SEQ ID NO: 20], 99%. As to GFCWNVCVYRNGHRVCHRRCN [SEQ ID NO: 237], the Protein binding (%) is 40%. In the case of GFCWNVCVKRNGVRVCHRRCN [SEQ ID NO: 305] it was 76%. In the case of GFCWNVCVYRNGVRVCHRRCH [SEQ ID NO: 282] it was 82%; in that of GFCWNVCVHRNGVRVCHRRCN [SEQ ID NO: 303], 43%. GFCWHVCARRNGVRVCYRRCN [SEQ ID NO: 218] had a Protein binding (%) of 99%. In the case of GFCWNVCVYRNGVRWCHRRCN [SEQ ID NO: 253] it was 94%. In the case of GFCWNVCVYRNGVRVCHRRCR [SEQ ID NO: 289] it was 83%. In the case of GFCWNVCVYRGGVRVCHRRCN [SEQ ID NO: 231] it was 66%. With GFCWNVCVYRAGVRVCHRRCN [SEQ ID NO: 230], the Protein binding (%) is 71%.

With GFCWNVCVARNGVRVCHRRCN [SEQ ID NO: 299], the Protein binding (%) is 74%. GFCWNVCVYRNGRRVCHRRCN [SEQ ID NO: 239] displayed a Protein binding (%) of 65%. In the case of GFCWRVCVYRNGARKCYRRCN [SEQ ID NO: 313] it was 98%. GFCWNACVKRNGVRVCYRRCN [SEQ ID NO: 258] gave a Protein binding (%) of 89%.

On to GFCWNVCVYRNGVRGCHRRCN [SEQ ID NO: 246], for which the Protein binding (%) was 79%. For GFCWRVCVYRNGVRKCHRRCN [SEQ ID NO: 315] the value was 93%.
